# Biological target: T1, Abp1, P15891
# T1 sequence (P15891 535-592, looked up): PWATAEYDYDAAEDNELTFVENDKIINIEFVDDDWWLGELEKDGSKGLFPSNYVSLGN
# Experiment: SPOT array
# Conditions: median of control spots 935
row,SPOT intensity,Binder
1,673,RAPPPVPKKPSSRIA
2,648,PKRRAPPPVPKKPSS
3,626,KRRAPPPVPKKPSSR
4,555,RPKRRAPPPVPKKPS

# Biological target: T2, Bbc1, P47068
# T2 sequence (P47068 1-78, looked up): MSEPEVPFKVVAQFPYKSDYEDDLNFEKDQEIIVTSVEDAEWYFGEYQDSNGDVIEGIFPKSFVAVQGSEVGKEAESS
# Experiment: SPOT array
# Conditions: median of control spots 796
row,SPOT intensity,Binder
1,116,RAPPPVPKKPSSRIA
2,354,PKRRAPPPVPKKPSS
3,233,KRRAPPPVPKKPSSR
4,487,RPKRRAPPPVPKKPS

# Biological target: Bem1-1, P29366
# Sequence (P29366 55-141): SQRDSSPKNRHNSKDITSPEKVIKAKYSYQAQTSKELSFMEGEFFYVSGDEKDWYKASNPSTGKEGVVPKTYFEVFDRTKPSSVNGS
# Experiment: SPOT array
# Conditions: median of control spots 4282
row,SPOT intensity,Binder
1,0,RAPPPVPKKPSSRIA
2,0,PKRRAPPPVPKKPSS
3,1,KRRAPPPVPKKPSSR
4,0,RPKRRAPPPVPKKPS

# Biological target: Bem1-2, P29366
# Sequence (P29366 139-227): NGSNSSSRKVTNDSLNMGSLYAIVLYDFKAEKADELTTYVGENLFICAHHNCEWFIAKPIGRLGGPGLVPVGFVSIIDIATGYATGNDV
# Experiment: SPOT array
# Conditions: median of control spots 4347
row,SPOT intensity,Binder
1,592,RAPPPVPKKPSSRIA
2,389,PKRRAPPPVPKKPSS
3,961,KRRAPPPVPKKPSSR
4,497,RPKRRAPPPVPKKPS

# Biological target: T3, Boi1, P38041
# T3 sequence (P38041 1-86, looked up): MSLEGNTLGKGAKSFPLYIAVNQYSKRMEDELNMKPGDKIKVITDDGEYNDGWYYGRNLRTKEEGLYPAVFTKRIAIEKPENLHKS
# Experiment: SPOT array
# Conditions: median of control spots 1162
row,SPOT intensity,Binder
1,0,RAPPPVPKKPSSRIA
2,2,PKRRAPPPVPKKPSS
3,2,KRRAPPPVPKKPSSR
4,3,RPKRRAPPPVPKKPS

# Biological target: T4, Boi2, P39969
# T4 sequence (P39969 32-116, looked up): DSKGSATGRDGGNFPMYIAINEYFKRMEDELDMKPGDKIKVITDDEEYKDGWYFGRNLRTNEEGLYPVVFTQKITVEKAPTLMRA
# Experiment: SPOT array
# Conditions: median of control spots 1161
row,SPOT intensity,Binder
1,0,RAPPPVPKKPSSRIA
2,1,PKRRAPPPVPKKPSS
3,1,KRRAPPPVPKKPSSR
4,1,RPKRRAPPPVPKKPS

# Biological target: T5, Bud14, P27637
# T5 sequence (P27637 247-328, looked up): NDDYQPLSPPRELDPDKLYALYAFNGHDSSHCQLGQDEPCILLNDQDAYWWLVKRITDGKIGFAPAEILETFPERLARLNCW
# Experiment: SPOT array
# Conditions: median of control spots 956
row,SPOT intensity,Binder
1,3,RAPPPVPKKPSSRIA
2,1,PKRRAPPPVPKKPSS
3,9,KRRAPPPVPKKPSSR
4,6,RPKRRAPPPVPKKPS

# Biological target: T6, Bzz1-1, P38822
# T6 sequence (P38822 478-572, looked up): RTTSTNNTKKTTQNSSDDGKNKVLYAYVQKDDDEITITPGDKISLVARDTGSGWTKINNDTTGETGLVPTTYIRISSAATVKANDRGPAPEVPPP
# Experiment: SPOT array
# Conditions: median of control spots 4446
row,SPOT intensity,Binder
1,435,RAPPPVPKKPSSRIA
2,650,PKRRAPPPVPKKPSS
3,1320,KRRAPPPVPKKPSSR
4,480,RPKRRAPPPVPKKPS

# Biological target: T7, Bzz1-2, P38822
# T7 sequence (P38822 568-633, looked up): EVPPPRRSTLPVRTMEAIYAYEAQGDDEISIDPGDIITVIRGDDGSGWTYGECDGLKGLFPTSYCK
# Experiment: SPOT array
# Conditions: median of control spots 4538
row,SPOT intensity,Binder
1,590,RAPPPVPKKPSSRIA
2,3420,PKRRAPPPVPKKPSS
3,4500,KRRAPPPVPKKPSSR
4,2580,RPKRRAPPPVPKKPS

# Biological target: T8, Cdc25, P04821
# T8 sequence (P04821 50-136, looked up): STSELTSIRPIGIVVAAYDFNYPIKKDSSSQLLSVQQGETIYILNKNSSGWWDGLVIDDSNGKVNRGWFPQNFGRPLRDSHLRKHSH
# Experiment: SPOT array
# Conditions: median of control spots 969
row,SPOT intensity,Binder
1,2,RAPPPVPKKPSSRIA
2,3,PKRRAPPPVPKKPSS
3,9,KRRAPPPVPKKPSSR
4,12,RPKRRAPPPVPKKPS

# Biological target: T9, Cyk3, Q07533
# T9 sequence (Q07533 1-83, looked up): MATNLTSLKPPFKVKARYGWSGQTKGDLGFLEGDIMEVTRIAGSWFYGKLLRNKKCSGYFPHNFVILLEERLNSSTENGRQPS
# Experiment: SPOT array
# Conditions: median of control spots 1451
row,SPOT intensity,Binder
1,0,RAPPPVPKKPSSRIA
2,1,PKRRAPPPVPKKPSS
3,4,KRRAPPPVPKKPSSR
4,2,RPKRRAPPPVPKKPS

# Biological target: T10, Fus1, P11710
# T10 sequence (P11710 432-512, looked up): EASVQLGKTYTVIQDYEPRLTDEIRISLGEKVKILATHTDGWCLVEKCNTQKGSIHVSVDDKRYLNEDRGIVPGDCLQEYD
# Experiment: SPOT array
# Conditions: median of control spots 1200
row,SPOT intensity,Binder
1,0,RAPPPVPKKPSSRIA
2,6,PKRRAPPPVPKKPSS
3,10,KRRAPPPVPKKPSSR
4,6,RPKRRAPPPVPKKPS

# Biological target: GST
# Experiment: SPOT array
# Conditions: median of control spots 978
row,SPOT intensity,Binder
1,1,RAPPPVPKKPSSRIA
2,2,PKRRAPPPVPKKPSS
3,3,KRRAPPPVPKKPSSR
4,6,RPKRRAPPPVPKKPS

# Biological target: T11, Hof1, Q05080
# T11 sequence (Q05080 590-669, looked up): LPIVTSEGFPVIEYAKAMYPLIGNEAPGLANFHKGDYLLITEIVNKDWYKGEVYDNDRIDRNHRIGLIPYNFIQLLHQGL
# Experiment: SPOT array
# Conditions: median of control spots 4086
row,SPOT intensity,Binder
1,4,RAPPPVPKKPSSRIA
2,8,PKRRAPPPVPKKPSS
3,6,KRRAPPPVPKKPSSR
4,2,RPKRRAPPPVPKKPS

# Biological target: T12, Hse1, P38753
# T12 sequence (P38753 208-285, looked up): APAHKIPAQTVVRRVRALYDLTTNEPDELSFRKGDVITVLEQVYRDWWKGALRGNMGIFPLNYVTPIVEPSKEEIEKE
# Experiment: SPOT array
# Conditions: median of control spots 1727
row,SPOT intensity,Binder
1,857,RAPPPVPKKPSSRIA
2,368,PKRRAPPPVPKKPSS
3,412,KRRAPPPVPKKPSSR
4,310,RPKRRAPPPVPKKPS

# Biological target: T13, Lsb1, P53281
# T13 sequence (P53281 45-122, looked up): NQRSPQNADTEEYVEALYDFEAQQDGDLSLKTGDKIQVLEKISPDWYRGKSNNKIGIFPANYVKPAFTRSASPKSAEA
# Experiment: SPOT array
# Conditions: median of control spots 388
row,SPOT intensity,Binder
1,1600,RAPPPVPKKPSSRIA
2,1740,PKRRAPPPVPKKPSS
3,1850,KRRAPPPVPKKPSSR
4,1450,RPKRRAPPPVPKKPS

# Biological target: T14, Lsb3, P43603
# T14 sequence (P43603 385-451, looked up): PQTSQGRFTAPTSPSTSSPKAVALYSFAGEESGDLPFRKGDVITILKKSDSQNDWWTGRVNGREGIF
# Experiment: SPOT array
# Conditions: median of control spots 406
row,SPOT intensity,Binder
1,415,RAPPPVPKKPSSRIA
2,346,PKRRAPPPVPKKPSS
3,389,KRRAPPPVPKKPSSR
4,298,RPKRRAPPPVPKKPS

# Biological target: T15, Lsb4, P32793
# T15 sequence (P32793 402-468, looked up): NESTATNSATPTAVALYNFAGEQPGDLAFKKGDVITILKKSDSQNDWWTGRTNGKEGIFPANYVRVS
# Experiment: SPOT array
# Conditions: median of control spots 397
row,SPOT intensity,Binder
1,180,RAPPPVPKKPSSRIA
2,182,PKRRAPPPVPKKPSS
3,150,KRRAPPPVPKKPSSR
4,129,RPKRRAPPPVPKKPS

# Biological target: Myo3, P36006
# Experiment: SPOT array
# Conditions: median of control spots 468
row,SPOT intensity,Binder
1,233,RAPPPVPKKPSSRIA
2,342,PKRRAPPPVPKKPSS
3,454,KRRAPPPVPKKPSSR
4,491,RPKRRAPPPVPKKPS

# Biological target: T16, Myo5, Q04439
# T16 sequence (Q04439 1072-1160, looked up): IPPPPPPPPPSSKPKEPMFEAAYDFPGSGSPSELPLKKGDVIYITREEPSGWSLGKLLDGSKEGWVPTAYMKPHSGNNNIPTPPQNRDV
# Experiment: SPOT array
# Conditions: median of control spots 471
row,SPOT intensity,Binder
1,15,RAPPPVPKKPSSRIA
2,119,PKRRAPPPVPKKPSS
3,144,KRRAPPPVPKKPSSR
4,232,RPKRRAPPPVPKKPS

# Biological target: T17, Nbp2, Q12163
# T17 sequence (Q12163 103-180, looked up): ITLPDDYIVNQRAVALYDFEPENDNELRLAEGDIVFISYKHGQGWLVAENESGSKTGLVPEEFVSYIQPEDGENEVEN
# Experiment: SPOT array
# Conditions: median of control spots 357
row,SPOT intensity,Binder
1,1050,RAPPPVPKKPSSRIA
2,650,PKRRAPPPVPKKPSS
3,751,KRRAPPPVPKKPSSR
4,887,RPKRRAPPPVPKKPS

# Biological target: T18, Pex13, P80667
# T18 sequence (P80667 295-386, looked up): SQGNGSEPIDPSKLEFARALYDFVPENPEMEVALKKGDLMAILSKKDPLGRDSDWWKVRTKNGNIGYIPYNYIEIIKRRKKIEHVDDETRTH
# Experiment: SPOT array
# Conditions: median of control spots 1341
row,SPOT intensity,Binder
1,395,RAPPPVPKKPSSRIA
2,41,PKRRAPPPVPKKPSS
3,47,KRRAPPPVPKKPSSR
4,42,RPKRRAPPPVPKKPS

# Biological target: T19, Pin3, Q06449
# T19 sequence (Q06449 53-122, looked up): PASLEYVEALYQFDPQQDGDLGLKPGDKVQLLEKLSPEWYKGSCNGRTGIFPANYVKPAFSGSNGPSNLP
# Experiment: SPOT array
# Conditions: median of control spots 2171
row,SPOT intensity,Binder
1,37,RAPPPVPKKPSSRIA
2,11,PKRRAPPPVPKKPSS
3,14,KRRAPPPVPKKPSSR
4,9,RPKRRAPPPVPKKPS

# Biological target: Rvs167, P39743
# Sequence (P39743 419-482): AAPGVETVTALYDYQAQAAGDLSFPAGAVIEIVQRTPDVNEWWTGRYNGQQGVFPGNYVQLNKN
# Experiment: SPOT array
# Conditions: median of control spots 2707
row,SPOT intensity,Binder
1,45,RAPPPVPKKPSSRIA
2,44,PKRRAPPPVPKKPSS
3,165,KRRAPPPVPKKPSSR
4,99,RPKRRAPPPVPKKPS

# Biological target: Sho1, P40073
# Sequence (P40073 287-367): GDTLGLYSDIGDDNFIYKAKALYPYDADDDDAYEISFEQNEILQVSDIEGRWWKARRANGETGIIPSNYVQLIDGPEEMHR
# Experiment: SPOT array
# Conditions: median of control spots 1148
row,SPOT intensity,Binder
1,509,RAPPPVPKKPSSRIA
2,399,PKRRAPPPVPKKPSS
3,370,KRRAPPPVPKKPSSR
4,487,RPKRRAPPPVPKKPS

# Biological target: T20, Sla1-2, P32790
# T20 sequence (P32790 60-140, looked up): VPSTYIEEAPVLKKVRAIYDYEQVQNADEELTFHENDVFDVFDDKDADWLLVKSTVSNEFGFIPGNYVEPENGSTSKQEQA
# Experiment: SPOT array
# Conditions: median of control spots 712
row,SPOT intensity,Binder
1,0,RAPPPVPKKPSSRIA
2,0,PKRRAPPPVPKKPSS
3,0,KRRAPPPVPKKPSSR
4,2,RPKRRAPPPVPKKPS

# Biological target: T21, Sla1-3, P32790
# T21 sequence (P32790 344-424, looked up): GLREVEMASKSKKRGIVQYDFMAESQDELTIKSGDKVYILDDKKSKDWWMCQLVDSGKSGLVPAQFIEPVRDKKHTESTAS
# Experiment: SPOT array
# Conditions: median of control spots 5475
row,SPOT intensity,Binder
1,155,RAPPPVPKKPSSRIA
2,3500,PKRRAPPPVPKKPSS
3,4640,KRRAPPPVPKKPSSR
4,2980,RPKRRAPPPVPKKPS

# Source: paper PMC2756588
